Like-named read-outs stand apart in the source and are kept apart here.
Assays:
[1] = target: recombinant birch pollen allergen Bet v 1 (Betula verrucosa) (UniProt P15494); test: ELISA, IgE of non-allergic control serum on rBet v 1
[2] = target: recombinant birch pollen allergen Bet v 1 (Betula verrucosa) (UniProt P15494); test: ELISA, IgE of control serum on rBet v 1 after clone 13
[3] = target: recombinant birch pollen allergen Bet v 1 (Betula verrucosa) (UniProt P15494); test: ELISA, IgE of control serum on rBet v 1 after clone 12
[4] = target: recombinant birch pollen allergen Bet v 1 (Betula verrucosa) (UniProt P15494); test: as above; remark: listed apart in the source
[5] = target: recombinant birch pollen allergen Bet v 1 (Betula verrucosa) (UniProt P15494); test: ELISA, IgE of control serum on rBet v 1 after clone 10
[6] = target: recombinant birch pollen allergen Bet v 1 (Betula verrucosa) (UniProt P15494); test: ELISA, IgE of control serum on rBet v 1 after clone 4
[7] = target: recombinant birch pollen allergen Bet v 1 (Betula verrucosa) (UniProt P15494); test: ELISA, IgE of control serum on rBet v 1 after clone 2
[8] = target: recombinant birch pollen allergen Bet v 1 (Betula verrucosa) (UniProt P15494); test: ELISA, IgE of control serum on rBet v 1 after clone 10; remark: listed apart in the source
[9] = target: recombinant birch pollen allergen Bet v 1 (Betula verrucosa) (UniProt P15494); test: ELISA, IgE of control serum on rBet v 1 after clone 4; remark: listed apart in the source
[10] = target: recombinant birch pollen allergen Bet v 1 (Betula verrucosa) (UniProt P15494); test: ELISA, IgE of control serum on rBet v 1 after clone 13; remark: listed apart in the source
[11] = target: recombinant birch pollen allergen Bet v 1 (Betula verrucosa) (UniProt P15494); test: ELISA, IgE of non-allergic control serum on rBet v 1; remark: listed apart in the source
[12] = target: recombinant birch pollen allergen Bet v 1 (Betula verrucosa) (UniProt P15494); test: ELISA, IgE of control serum on rBet v 1 after clone 2; remark: listed apart in the source

Chain of UniProt P15494 (P15494 2-160 limits assumed): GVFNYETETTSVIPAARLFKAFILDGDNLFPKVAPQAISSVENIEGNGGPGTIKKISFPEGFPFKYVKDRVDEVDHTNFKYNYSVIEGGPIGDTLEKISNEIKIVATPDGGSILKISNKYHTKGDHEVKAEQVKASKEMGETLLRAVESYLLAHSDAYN

OD without mAb [1]: 0.03 OD
OD with mAb [2]: 0.08 OD
OD with mAb [3]: 0.14 OD
OD with mAb [4]: 0.04 OD
OD with mAb [5]: 0.09 OD
OD with mAb [6]: 0.04 OD
OD with mAb [7]: 0.03 OD
OD with mAb [8]: 0.03 OD
OD with mAb [9]: 0.09 OD
OD with mAb [10]: 0.15 OD
OD without mAb [11]: 0.06 OD
OD with mAb [12]: 0.09 OD
Substance: serum from a non-allergic person (antibody)
